# Test system: C[C@@H]1O[C@H](OP(=O)(O)OP(=O)(O)OC[C@H]2O[C@@H](n3cnc4c(=O)[nH]c(N)nc43)[C@H](O)[C@@H]2O)[C@@H](O)[C@H](O)[C@@H]1O
# Experiment: purified protein
# Settings: apparent, acceptor LacNAc 3 mM, Tris-HCl pH 7.5, 37 °C
substance,measurement,value
Hp3FT (Helicobacter pylori),Km,6.4480 ± 1.1360 mM
same,kcat,0.617 ± 0.0417 s⁻¹
same,kcat/Km,96 M⁻¹ s⁻¹

# Reference: paper PMC6613818
